In article PMC8279004:

Key:
[1] = biological target: H4K16ac nucleosome (Xenopus | not stated); experiment: native gel or EMSA
[2] = biological target: unmodified nucleosome (Xenopus); experiment: native gel or EMSA

In the case of “catalytic domain of yeast Dot1 (residues 158 to 582) (from UniProt Q04089 158-582) (domain or fragment)”, the Kd [1] is reported as 83.3 nM and the Kd [2] is reported as 70.8 nM.
